B1: Keratin, type I cytoskeletal 18 (Homo sapiens), P05783 (parent)
chain: MSFTTRSTFSTNYRSLGSVQAPSYGARPVSSAASVYAGAGGSGSRISVSRSTSFRGGMGSGGLATGIAGGLAGMGGIQNEKETMQSLNDRLASYLDRVRSLETENRRLESKIREHLEKKGPQVRDWSHYFKIIEDLRAQIFANTVDNARIVLQIDNARLAADDFRVKYETELAMRQSVENDIHGLRKVIDDTNITRLQLETEIEALKEELLFMKKNHEEEVKGLQAQIASSGLTVEVDAPKSQDLAKIMADIRAQYDELARKNREELDKYWSQQIEESTTVVTTQSAEVGAAETTLTELRRTVQSLEIDLDSMRNLKASLENSLREVEARYALQMEQLNGILLHLESELAQTRAEGQRQAQEYEALLNIKVKLEAEIATYRRLLEDGEDFNLGDALDSSNSMQTIQKTTTRRIVDGKVVSETNDTKVLRH
B2: U4/U6 small nuclear ribonucleoprotein Prp31 (Homo sapiens), Q8WWY3 (parent)
chain: MSLADELLADLEEAAEEEEGGSYGEEEEEPAIEDVQEETQLDLSGDSVKTIAKLWDSKMFAEIMMKIEEYISKQAKASEVMGPVEAAPEYRVIVDANNLTVEIENELNIIHKFIRDKYSKRFPELESLVPNALDYIRTVKELGNSLDKCKNNENLQQILTNATIMVVSVTASTTQGQQLSEEELERLEEACDMALELNASKHRIYEYVESRMSFIAPNLSIIIGASTAAKIMGVAGGLTNLSKMPACNIMLLGAQRKTLSGFSSTSVLPHTGYIYHSDIVQSLPPDLRRKAARLVAAKCTLAARVDSFHESTEGKVGYELKDEIERKFDKWQEPPPVKQVKPLPAPLDGQRKKRGGRRYRKMKERLGLTEIRKQANRMSFGEIEEDAYQEDLGFSLGHLGKSGSGRVRQTQVNEATKARISKTLQRTLQKQSVVYGGKSTIRDRSSGTASSVAFTPLQGLEIVNPQAAEKKVAEANQKYFSSMAEFLKVKGEKSGLMST
partner: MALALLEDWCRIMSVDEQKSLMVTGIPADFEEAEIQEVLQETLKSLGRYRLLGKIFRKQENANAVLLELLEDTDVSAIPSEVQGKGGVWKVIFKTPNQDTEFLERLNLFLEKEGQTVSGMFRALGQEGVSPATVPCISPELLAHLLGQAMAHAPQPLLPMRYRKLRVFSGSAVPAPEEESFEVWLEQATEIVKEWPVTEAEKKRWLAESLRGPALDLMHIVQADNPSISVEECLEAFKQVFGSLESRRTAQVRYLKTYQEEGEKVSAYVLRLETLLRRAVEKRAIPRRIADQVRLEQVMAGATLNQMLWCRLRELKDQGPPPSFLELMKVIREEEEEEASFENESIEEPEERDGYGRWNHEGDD
B3: E3 ubiquitin-protein ligase Midline-1 (Homo sapiens), O15344 (parent)
chain: METLESELTCPICLELFEDPLLLPCAHSLCFNCAHRILVSHCATNESVESITAFQCPTCRHVITLSQRGLDGLKRNVTLQNIIDRFQKASVSGPNSPSETRRERAFDANTMTSAEKVLCQFCDQDPAQDAVKTCVTCEVSYCDECLKATHPNKKPFTGHRLIEPIPDSHIRGLMCLEHEDEKVNMYCVTDDQLICALCKLVGRHRDHQVAALSERYDKLKQNLESNLTNLIKRNTELETLLAKLIQTCQHVEVNASRQEAKLTEECDLLIEIIQQRRQIIGTKIKEGKVMRLRKLAQQIANCKQCIERSASLISQAEHSLKENDHARFLQTAKNITERVSMATASSQVLIPEINLNDTFDTFALDFSREKKLLECLDYLTAPNPPTIREELCTASYDTITVHWTSDDEFSVVSYELQYTIFTGQANVVSLCNSADSWMIVPNIKQNHYTVHGLQSGTKYIFMVKAINQAGSRSSEPGKLKTNSQPFKLDPKSAHRKLKVSHDNLTVERDESSSKKSHTPERFTSQGSYGVAGNVFIDSGRHYWEVVISGSTWYAIGLAYKSAPKHEWIGKNSASWALCRCNNNWVVRHNSKEIPIEPAPHLRRVGILLDYDNGSIAFYDALNSIHLYTFDVAFAQPVCPTFTVWNKCLTIITGLPIPDHLDCTEQLP

The values that follow come from IntAct's records for PubMed 25910212.

The variants in the first experiment derive from B1. As to conditions: with goga2_human GOLGA2, Q08379.
goga2_human GOLGA2, Q08379, sequence (Q08379 whole entry): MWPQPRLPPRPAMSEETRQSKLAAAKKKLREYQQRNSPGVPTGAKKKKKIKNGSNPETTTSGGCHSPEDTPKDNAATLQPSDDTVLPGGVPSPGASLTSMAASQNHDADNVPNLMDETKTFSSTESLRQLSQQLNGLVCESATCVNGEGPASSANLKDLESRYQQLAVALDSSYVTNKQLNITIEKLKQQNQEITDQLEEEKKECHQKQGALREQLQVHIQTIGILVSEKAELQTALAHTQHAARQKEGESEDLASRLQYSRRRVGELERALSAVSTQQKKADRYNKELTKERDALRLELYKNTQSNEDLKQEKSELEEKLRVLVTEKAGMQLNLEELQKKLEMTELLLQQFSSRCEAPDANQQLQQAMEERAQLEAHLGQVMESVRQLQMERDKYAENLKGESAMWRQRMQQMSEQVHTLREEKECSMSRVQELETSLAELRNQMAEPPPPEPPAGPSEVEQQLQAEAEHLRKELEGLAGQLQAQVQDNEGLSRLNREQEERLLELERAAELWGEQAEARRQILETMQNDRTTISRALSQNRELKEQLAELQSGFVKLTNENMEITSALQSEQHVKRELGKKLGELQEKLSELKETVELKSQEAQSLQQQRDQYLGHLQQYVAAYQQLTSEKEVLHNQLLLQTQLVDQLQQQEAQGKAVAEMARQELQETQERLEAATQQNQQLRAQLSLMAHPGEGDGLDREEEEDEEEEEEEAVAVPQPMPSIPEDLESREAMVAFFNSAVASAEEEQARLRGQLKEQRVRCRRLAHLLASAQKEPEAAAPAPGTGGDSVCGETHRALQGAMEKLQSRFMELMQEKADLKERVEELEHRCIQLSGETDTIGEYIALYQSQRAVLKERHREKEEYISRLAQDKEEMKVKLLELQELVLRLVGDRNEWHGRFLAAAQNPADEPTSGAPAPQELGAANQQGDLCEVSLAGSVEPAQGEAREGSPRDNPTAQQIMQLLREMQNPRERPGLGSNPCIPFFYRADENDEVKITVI
Take MSFTTRSTFSTNYRSLGSVQAPSYGARPVSSAASVYAGAGGSGSRISVSRSTSFRGGMGSGGLATGIAGGLAGMGGIQNEKETMQSLNDRLASYLDRVRSLEAENRRLESKIREHLEKKGPQVRDWSHYFKIIEDLRAQIFANTVDNARIVLQIDNARLAADDFRVKYETELAMRQSVENDIHGLRKVIDDTNITRLQLETEIEALKEELLFMKKNHEEEVKGLQAQIASSGLTVEVDAPKSQDLAKIMADIRAQYDELARKNREELDKYWSQQIEESTTVVTTQSAEVGAAETTLTELRRTVQSLEIDLDSMRNLKASLENSLREVEARYALQMEQLNGILLHLESELAQTRAEGQRQAQEYEALLNIKVKLEAEIATYRRLLEDGEDFNLGDALDSSNSMQTIQKTTTRRIVDGKVVSETNDTKVLRH [T103A]: the “effect of a mutation on the interaction” value is “disrupting interaction strength”.

The next experiment covers variants of B1. The settings on record: with hgs_human HGS.
Turning to MSFTTRSTFSTNYRSLGSVQAPSYGARPVSSAASVYAGAGGSGSRISVSRSTSFRGGMGSGGLATGIAGGLAGMGGIQNEKETMQSLNDRLASYLDRVRSLEAENRRLESKIREHLEKKGPQVRDWSHYFKIIEDLRAQIFANTVDNARIVLQIDNARLAADDFRVKYETELAMRQSVENDIHGLRKVIDDTNITRLQLETEIEALKEELLFMKKNHEEEVKGLQAQIASSGLTVEVDAPKSQDLAKIMADIRAQYDELARKNREELDKYWSQQIEESTTVVTTQSAEVGAAETTLTELRRTVQSLEIDLDSMRNLKASLENSLREVEARYALQMEQLNGILLHLESELAQTRAEGQRQAQEYEALLNIKVKLEAEIATYRRLLEDGEDFNLGDALDSSNSMQTIQKTTTRRIVDGKVVSETNDTKVLRH [T103A], the “effect of a mutation on the interaction” value is “disrupting interaction strength”.

In another experiment the parent is B1. The settings on record: with syce1_human SYCE1, Q8N0S2.
syce1_human SYCE1, Q8N0S2, sequence (Q8N0S2 whole entry): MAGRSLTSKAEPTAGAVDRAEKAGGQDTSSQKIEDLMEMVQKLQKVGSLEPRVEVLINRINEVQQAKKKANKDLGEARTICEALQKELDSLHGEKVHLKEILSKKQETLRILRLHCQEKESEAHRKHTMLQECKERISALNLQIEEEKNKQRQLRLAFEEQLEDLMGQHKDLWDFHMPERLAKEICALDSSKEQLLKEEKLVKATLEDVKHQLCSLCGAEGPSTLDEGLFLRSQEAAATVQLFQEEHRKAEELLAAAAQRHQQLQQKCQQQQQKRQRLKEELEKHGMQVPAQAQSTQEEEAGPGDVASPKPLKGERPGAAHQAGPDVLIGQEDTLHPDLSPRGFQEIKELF
For MSFTTRSTFSTNYRSLGSVQAPSYGARPVSSAASVYAGAGGSGSRISVSRSTSFRGGMGSGGLATGIAGGLAGMGGIQNEKETMQSLNDRLASYLDRVRSLEAENRRLESKIREHLEKKGPQVRDWSHYFKIIEDLRAQIFANTVDNARIVLQIDNARLAADDFRVKYETELAMRQSVENDIHGLRKVIDDTNITRLQLETEIEALKEELLFMKKNHEEEVKGLQAQIASSGLTVEVDAPKSQDLAKIMADIRAQYDELARKNREELDKYWSQQIEESTTVVTTQSAEVGAAETTLTELRRTVQSLEIDLDSMRNLKASLENSLREVEARYALQMEQLNGILLHLESELAQTRAEGQRQAQEYEALLNIKVKLEAEIATYRRLLEDGEDFNLGDALDSSNSMQTIQKTTTRRIVDGKVVSETNDTKVLRH [T103A], the “effect of a mutation on the interaction” value is given as “disrupting interaction strength”.

The next experiment covers variants of B2. As to conditions: with pnma2_human PNMA2, Q9UL42.
Take MSLADELLADLEEAAEEEEGGSYGEEEEEPAIEDVQEETQLDLSGDSVKTIAKLWDSKMFAEIMMKIEEYISKQAKASEVMGPVEAAPEYRVIVDANNLTVEIENEVNIIHKFIRDKYSKRFPELESLVPNALDYIRTVKELGNSLDKCKNNENLQQILTNATIMVVSVTASTTQGQQLSEEELERLEEACDMALELNASKHRIYEYVESRMSFIAPNLSIIIGASTAAKIMGVAGGLTNLSKMPACNIMLLGAQRKTLSGFSSTSVLPHTGYIYHSDIVQSLPPDLRRKAARLVAAKCTLAARVDSFHESTEGKVGYELKDEIERKFDKWQEPPPVKQVKPLPAPLDGQRKKRGGRRYRKMKERLGLTEIRKQANRMSFGEIEEDAYQEDLGFSLGHLGKSGSGRVRQTQVNEATKARISKTLQRTLQKQSVVYGGKSTIRDRSSGTASSVAFTPLQGLEIVNPQAAEKKVAEANQKYFSSMAEFLKVKGEKSGLMST [L107V]: the “effect of a mutation on the interaction” value is “with no effect”.

The variants in another experiment derive from B3. The settings on record: with meox1_human MEOX1, P50221.
meox1_human MEOX1, P50221, sequence (P50221 whole entry): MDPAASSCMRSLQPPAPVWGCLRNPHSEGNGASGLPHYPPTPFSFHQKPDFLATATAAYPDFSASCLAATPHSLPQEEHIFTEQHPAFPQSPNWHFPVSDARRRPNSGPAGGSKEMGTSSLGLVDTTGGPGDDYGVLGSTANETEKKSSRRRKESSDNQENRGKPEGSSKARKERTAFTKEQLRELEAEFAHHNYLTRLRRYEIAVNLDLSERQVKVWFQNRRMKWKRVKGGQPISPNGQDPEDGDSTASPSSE
Turning to K370E, the “effect of a mutation on the interaction” value is listed as “with no effect”. Still for that read-out and setting: the same measure for C266R: “with no effect”.
